Measured values from the Human Domainome abundance scans (Beltran et al. 2025).
± gives the uncertainty stated by the source.

B1: WW domain-binding protein 4, residues 8 to 43; numbered along this chain, O75554 (parent)
chain: QPKKFCDYCKCWIADNRPSVEFHERGKNHKENVAKR

Variants of: B1
Assay: abundance fitness (aPCA) (normalised: wild type 0, dead -1); higher = more abundant; growth selection in yeast, the domain comes from the species named
Conditions: Homo sapiens

**Q.** With QPKKECDYCKCWIADNRPSVEFHERGKNHKENVAKR as the variant, how does the abundance fitness read?
**A.** -0.356 ± 0.072

**Q.** For QPKKICDYCKCWIADNRPSVEFHERGKNHKENVAKR, which abundance fitness is on record?
**A.** -0.379 ± 0.12

**Q.** For QPKKGCDYCKCWIADNRPSVEFHERGKNHKENVAKR, which abundance fitness is on record?
**A.** -0.786 ± 0.066

**Q.** With QPKKMCDYCKCWIADNRPSVEFHERGKNHKENVAKR as the variant, how does the abundance fitness read?
**A.** -0.085 ± 0.18

**Q.** Which abundance fitness does the source give for QPKKDCDYCKCWIADNRPSVEFHERGKNHKENVAKR here?
**A.** -0.533 ± 0.13

**Q.** Which abundance fitness does the source give for QPKKKCDYCKCWIADNRPSVEFHERGKNHKENVAKR here?
**A.** -0.502 ± 0.09

**Q.** For QPKKPCDYCKCWIADNRPSVEFHERGKNHKENVAKR, which abundance fitness is on record?
**A.** -0.551 ± 0.1

**Q.** For QPKKRCDYCKCWIADNRPSVEFHERGKNHKENVAKR, which abundance fitness is on record?
**A.** -0.465 ± 0.068

**Q.** For QPKKSCDYCKCWIADNRPSVEFHERGKNHKENVAKR, which abundance fitness is on record?
**A.** -0.468 ± 0.087

**Q.** For QPKKQCDYCKCWIADNRPSVEFHERGKNHKENVAKR, which abundance fitness is on record?
**A.** -0.328 ± 0.084

**Q.** Which abundance fitness does the source give for QPKKYCDYCKCWIADNRPSVEFHERGKNHKENVAKR here?
**A.** -0.087 ± 0.17

**Q.** With QPKKWCDYCKCWIADNRPSVEFHERGKNHKENVAKR as the variant, how does the abundance fitness read?
**A.** -1.06 ± 0.087

**Q.** Which abundance fitness does the source give for QPKKNCDYCKCWIADNRPSVEFHERGKNHKENVAKR here?
**A.** -0.174 ± 0.1

**Q.** Which abundance fitness does the source give for QPKKACDYCKCWIADNRPSVEFHERGKNHKENVAKR here?
**A.** -0.261 ± 0.063

**Q.** With QPKKVCDYCKCWIADNRPSVEFHERGKNHKENVAKR as the variant, how does the abundance fitness read?
**A.** -0.565 ± 0.083

**Q.** With QPKKFCDYCKIWIADNRPSVEFHERGKNHKENVAKR as the variant, how does the abundance fitness read?
**A.** 0.002 ± 0.098

**Q.** With QPKKFCDYCKPWIADNRPSVEFHERGKNHKENVAKR as the variant, how does the abundance fitness read?
**A.** -0.475 ± 0.12

**Q.** With QPKKFCDYCKAWIADNRPSVEFHERGKNHKENVAKR as the variant, how does the abundance fitness read?
**A.** 0.052 ± 0.066

**Q.** Which abundance fitness does the source give for QPKKFCDYCKGWIADNRPSVEFHERGKNHKENVAKR here?
**A.** -0.059 ± 0.065

**Q.** With QPKKFCDYCKKWIADNRPSVEFHERGKNHKENVAKR as the variant, how does the abundance fitness read?
**A.** -0.066 ± 0.099

**Q.** For QPKKFCDYCKQWIADNRPSVEFHERGKNHKENVAKR, which abundance fitness is on record?
**A.** 0.139 ± 0.09

**Q.** For QPKKFCDYCKHWIADNRPSVEFHERGKNHKENVAKR, which abundance fitness is on record?
**A.** -0.335 ± 0.27

**Q.** With QPKKFCDYCKDWIADNRPSVEFHERGKNHKENVAKR as the variant, how does the abundance fitness read?
**A.** 0.144 ± 0.16

**Q.** With QPKKFCDYCKFWIADNRPSVEFHERGKNHKENVAKR as the variant, how does the abundance fitness read?
**A.** -0.417 ± 0.14

**Q.** For QPKKFCDYCKSWIADNRPSVEFHERGKNHKENVAKR, which abundance fitness is on record?
**A.** 0.101 ± 0.075

**Q.** Which abundance fitness does the source give for QPKKFCDYCKLWIADNRPSVEFHERGKNHKENVAKR here?
**A.** -0.045 ± 0.078

**Q.** With QPKKFCDYCKMWIADNRPSVEFHERGKNHKENVAKR as the variant, how does the abundance fitness read?
**A.** 0.084 ± 0.14

**Q.** For QPKKFCDYCFCWIADNRPSVEFHERGKNHKENVAKR, which abundance fitness is on record?
**A.** -0.409 ± 0.21

**Q.** Which abundance fitness does the source give for QPKKFCDYCVCWIADNRPSVEFHERGKNHKENVAKR here?
**A.** -0.551 ± 0.088

**Q.** Which abundance fitness does the source give for QPKKFCDYCRCWIADNRPSVEFHERGKNHKENVAKR here?
**A.** -0.088 ± 0.064

**Q.** Which abundance fitness does the source give for QPKKFCDYCQCWIADNRPSVEFHERGKNHKENVAKR here?
**A.** -0.146 ± 0.1

**Q.** With QPKKFCDYCCCWIADNRPSVEFHERGKNHKENVAKR as the variant, how does the abundance fitness read?
**A.** -0.325 ± 0.092

**Q.** With QPKKFCDYCACWIADNRPSVEFHERGKNHKENVAKR as the variant, how does the abundance fitness read?
**A.** -0.126 ± 0.058

**Q.** For QPKKFCDYCPCWIADNRPSVEFHERGKNHKENVAKR, which abundance fitness is on record?
**A.** -0.482 ± 0.23

**Q.** For QPKKFCDYCYCWIADNRPSVEFHERGKNHKENVAKR, which abundance fitness is on record?
**A.** 0.002 ± 0.33

**Q.** For QPKKFCDYCSCWIADNRPSVEFHERGKNHKENVAKR, which abundance fitness is on record?
**A.** -0.151 ± 0.079

**Q.** For QPKKFCDYCECWIADNRPSVEFHERGKNHKENVAKR, which abundance fitness is on record?
**A.** -0.134 ± 0.097

**Q.** For QPKKFCDYCDCWIADNRPSVEFHERGKNHKENVAKR, which abundance fitness is on record?
**A.** 0.061 ± 0.18

**Q.** Which abundance fitness does the source give for QPKKFCDYCWCWIADNRPSVEFHERGKNHKENVAKR here?
**A.** -0.748 ± 0.091

**Q.** Which abundance fitness does the source give for QPKKFCDYCMCWIADNRPSVEFHERGKNHKENVAKR here?
**A.** -0.34 ± 0.25

**Q.** With QPKKFCDYCNCWIADNRPSVEFHERGKNHKENVAKR as the variant, how does the abundance fitness read?
**A.** -0.149 ± 0.16

**Q.** For QKKKFCDYCKCWIADNRPSVEFHERGKNHKENVAKR, which abundance fitness is on record?
**A.** 0.294 ± 0.16

**Q.** For QSKKFCDYCKCWIADNRPSVEFHERGKNHKENVAKR, which abundance fitness is on record?
**A.** 0.115 ± 0.075

**Q.** With QWKKFCDYCKCWIADNRPSVEFHERGKNHKENVAKR as the variant, how does the abundance fitness read?
**A.** -0.692 ± 0.085

**Q.** Which abundance fitness does the source give for QDKKFCDYCKCWIADNRPSVEFHERGKNHKENVAKR here?
**A.** 0.365 ± 0.25

**Q.** For QQKKFCDYCKCWIADNRPSVEFHERGKNHKENVAKR, which abundance fitness is on record?
**A.** 0.179 ± 0.099

**Q.** With QIKKFCDYCKCWIADNRPSVEFHERGKNHKENVAKR as the variant, how does the abundance fitness read?
**A.** 0.015 ± 0.14

**Q.** Which abundance fitness does the source give for QLKKFCDYCKCWIADNRPSVEFHERGKNHKENVAKR here?
**A.** 0.045 ± 0.096

**Q.** For QRKKFCDYCKCWIADNRPSVEFHERGKNHKENVAKR, which abundance fitness is on record?
**A.** 0.047 ± 0.062

**Q.** With QYKKFCDYCKCWIADNRPSVEFHERGKNHKENVAKR as the variant, how does the abundance fitness read?
**A.** -0.176 ± 0.26

**Q.** For QVKKFCDYCKCWIADNRPSVEFHERGKNHKENVAKR, which abundance fitness is on record?
**A.** 0.06 ± 0.066

**Q.** With QMKKFCDYCKCWIADNRPSVEFHERGKNHKENVAKR as the variant, how does the abundance fitness read?
**A.** 0.615 ± 0.2

**Q.** Which abundance fitness does the source give for QGKKFCDYCKCWIADNRPSVEFHERGKNHKENVAKR here?
**A.** 0.136 ± 0.06

**Q.** For QTKKFCDYCKCWIADNRPSVEFHERGKNHKENVAKR, which abundance fitness is on record?
**A.** 0.109 ± 0.11

**Q.** For QPKKFCDECKCWIADNRPSVEFHERGKNHKENVAKR, which abundance fitness is on record?
**A.** 0.048 ± 0.096

**Q.** Which abundance fitness does the source give for QPKKFCDVCKCWIADNRPSVEFHERGKNHKENVAKR here?
**A.** -0.249 ± 0.074

**Q.** With QPKKFCDKCKCWIADNRPSVEFHERGKNHKENVAKR as the variant, how does the abundance fitness read?
**A.** -0.309 ± 0.083

**Q.** Which abundance fitness does the source give for QPKKFCDGCKCWIADNRPSVEFHERGKNHKENVAKR here?
**A.** -0.224 ± 0.06

**Q.** For QPKKFCDPCKCWIADNRPSVEFHERGKNHKENVAKR, which abundance fitness is on record?
**A.** 0.343 ± 0.096

**Q.** Which abundance fitness does the source give for QPKKFCDMCKCWIADNRPSVEFHERGKNHKENVAKR here?
**A.** 0.054 ± 0.093

**Q.** For QPKKFCDWCKCWIADNRPSVEFHERGKNHKENVAKR, which abundance fitness is on record?
**A.** -0.118 ± 0.079

**Q.** For QPKKFCDRCKCWIADNRPSVEFHERGKNHKENVAKR, which abundance fitness is on record?
**A.** -0.12 ± 0.062

**Q.** For QPKKFCDDCKCWIADNRPSVEFHERGKNHKENVAKR, which abundance fitness is on record?
**A.** 0.129 ± 0.15

**Q.** For QPKKFCDSCKCWIADNRPSVEFHERGKNHKENVAKR, which abundance fitness is on record?
**A.** -0.448 ± 0.19

**Q.** Which abundance fitness does the source give for QPKKFCDCCKCWIADNRPSVEFHERGKNHKENVAKR here?
**A.** -0.269 ± 0.12

**Q.** For QPKKFCDTCKCWIADNRPSVEFHERGKNHKENVAKR, which abundance fitness is on record?
**A.** -0.07 ± 0.084

**Q.** Which abundance fitness does the source give for QPKKFCDLCKCWIADNRPSVEFHERGKNHKENVAKR here?
**A.** -0.26 ± 0.1

**Q.** For QPPKFCDYCKCWIADNRPSVEFHERGKNHKENVAKR, which abundance fitness is on record?
**A.** -0.119 ± 0.076
